From patent US20250346685A1 come the findings set out here.

One assay deals with FcgRI (UniProt P12314). Put plainly: SPR.
In assay [1] the target is human CD3 on T cells (Jurkat cells; human peripheral blood CD4+ and CD8+ T-cells) (human) (UniProt P07766). Put plainly: flow cytometry on Jurkat cells. A general note: In flow cytometry, cells or beads pass a laser one at a time.

pKd: −log10 of the molar value.

Chain of FcgRI (P12314 16-288): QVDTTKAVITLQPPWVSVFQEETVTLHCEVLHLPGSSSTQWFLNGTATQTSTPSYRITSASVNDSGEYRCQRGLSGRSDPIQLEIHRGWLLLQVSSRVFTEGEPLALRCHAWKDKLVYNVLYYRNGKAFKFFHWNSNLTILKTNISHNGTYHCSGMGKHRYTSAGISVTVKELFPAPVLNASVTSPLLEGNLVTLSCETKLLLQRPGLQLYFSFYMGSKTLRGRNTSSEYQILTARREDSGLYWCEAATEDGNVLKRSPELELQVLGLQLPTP

On to KLH-hIgG4, for which the pKd – broadly, the negative decadic logarithm of the Kd, by convention in mol/L – with FcgRI is 8.06.

On to OKT3-hIgG1 (antibody), for which, in assay [1], the affinity (FACS) was determined as 0.27 nM.
